From paper PMC2698432 come the findings set out here.

One data set has as its target T1, SarZ (Staphylococcus aureus, UniProt Q5HDG9 1-148).
T1 sequence: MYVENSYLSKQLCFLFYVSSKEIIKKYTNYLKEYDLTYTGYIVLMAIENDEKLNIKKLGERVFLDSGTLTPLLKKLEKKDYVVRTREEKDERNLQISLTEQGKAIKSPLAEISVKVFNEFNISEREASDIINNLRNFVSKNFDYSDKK
The experiment in a line: EMSA. A general note: In EMSA bound probe runs differently from free probe, usually more slowly.

Another data set has as its target SarZ C13S (Staphylococcus aureus, UniProt Q5HDG9 1-148, C13S). The data set can be described thus: EMSA.

B1: ohr promoter fragment (ohr1/ohr2) (dsDNA)
DNA 1: TTTTCGAATGGGTAAAGCATAAATGTATTTTAAATTAGGAGGTTATAAGT
DNA 2: ACTTATAACCTCCTAATTTAAAATACATTTATGCTTTACCCATTCGAAAA
For B1, the binding result with SarZ and with SarZ C13S was “binds” in each case.
